Experimental findings from US20160151452A1 are described below.

Bounds are passed on as bounds.

Experiment [1] has as its target EphB2-Fc. Nature of the experiment: SPR competition on immobilised EphB2-Fc; competitor ephrinB2-Fc 246 nM preincubated with 0-1020 nM GST-Azu 88-113.
In experiment [2] the target is EphB2 transiently expressed in DU145 cells. Nature of the experiment: cell-based or functional assay.
Experiment [3] addresses EphB2-Fc. Nature of the experiment: SPR competition on immobilised EphB2-Fc; competitor ephrinB2-Fc 246 nM.
Experiment [4] concerns the target EphB2-Fc. In words: SPR, 100 nM analyte over immobilised EphB2-Fc.
The target in experiment [5] is EphB2-Fc. Nature of the experiment: SPR titration (0.05-100 nM) on immobilised EphB2-Fc, Langmuir 1:1 fit.
Chain of EphB2-Fc (P54763 19-543): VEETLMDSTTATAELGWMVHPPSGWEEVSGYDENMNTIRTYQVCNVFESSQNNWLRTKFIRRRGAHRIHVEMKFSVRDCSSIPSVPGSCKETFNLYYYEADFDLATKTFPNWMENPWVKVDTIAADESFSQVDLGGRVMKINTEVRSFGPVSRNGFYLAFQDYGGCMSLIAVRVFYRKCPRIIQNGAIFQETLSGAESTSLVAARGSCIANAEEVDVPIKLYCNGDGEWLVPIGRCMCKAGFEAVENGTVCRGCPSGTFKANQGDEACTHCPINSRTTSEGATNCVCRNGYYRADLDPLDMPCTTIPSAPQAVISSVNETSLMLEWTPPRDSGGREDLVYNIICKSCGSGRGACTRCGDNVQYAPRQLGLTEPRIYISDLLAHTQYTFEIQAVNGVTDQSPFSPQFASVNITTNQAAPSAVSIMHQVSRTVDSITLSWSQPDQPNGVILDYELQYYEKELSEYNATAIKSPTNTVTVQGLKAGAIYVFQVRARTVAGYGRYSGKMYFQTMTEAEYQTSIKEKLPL
Experiment [6] addresses EphB2-Fc. In words: SPR competition on immobilised EphB2-Fc; competitor ephrinB2-Fc 246 nM preincubated with 0-1020 nM azurin.
The target of experiment [7] is EphA6-Fc. Nature of the experiment: SPR, azurin immobilised on CM5 chip, 100 nM Eph-Fc injected.
Chain of EphA6-Fc (Q9UF33 whole entry): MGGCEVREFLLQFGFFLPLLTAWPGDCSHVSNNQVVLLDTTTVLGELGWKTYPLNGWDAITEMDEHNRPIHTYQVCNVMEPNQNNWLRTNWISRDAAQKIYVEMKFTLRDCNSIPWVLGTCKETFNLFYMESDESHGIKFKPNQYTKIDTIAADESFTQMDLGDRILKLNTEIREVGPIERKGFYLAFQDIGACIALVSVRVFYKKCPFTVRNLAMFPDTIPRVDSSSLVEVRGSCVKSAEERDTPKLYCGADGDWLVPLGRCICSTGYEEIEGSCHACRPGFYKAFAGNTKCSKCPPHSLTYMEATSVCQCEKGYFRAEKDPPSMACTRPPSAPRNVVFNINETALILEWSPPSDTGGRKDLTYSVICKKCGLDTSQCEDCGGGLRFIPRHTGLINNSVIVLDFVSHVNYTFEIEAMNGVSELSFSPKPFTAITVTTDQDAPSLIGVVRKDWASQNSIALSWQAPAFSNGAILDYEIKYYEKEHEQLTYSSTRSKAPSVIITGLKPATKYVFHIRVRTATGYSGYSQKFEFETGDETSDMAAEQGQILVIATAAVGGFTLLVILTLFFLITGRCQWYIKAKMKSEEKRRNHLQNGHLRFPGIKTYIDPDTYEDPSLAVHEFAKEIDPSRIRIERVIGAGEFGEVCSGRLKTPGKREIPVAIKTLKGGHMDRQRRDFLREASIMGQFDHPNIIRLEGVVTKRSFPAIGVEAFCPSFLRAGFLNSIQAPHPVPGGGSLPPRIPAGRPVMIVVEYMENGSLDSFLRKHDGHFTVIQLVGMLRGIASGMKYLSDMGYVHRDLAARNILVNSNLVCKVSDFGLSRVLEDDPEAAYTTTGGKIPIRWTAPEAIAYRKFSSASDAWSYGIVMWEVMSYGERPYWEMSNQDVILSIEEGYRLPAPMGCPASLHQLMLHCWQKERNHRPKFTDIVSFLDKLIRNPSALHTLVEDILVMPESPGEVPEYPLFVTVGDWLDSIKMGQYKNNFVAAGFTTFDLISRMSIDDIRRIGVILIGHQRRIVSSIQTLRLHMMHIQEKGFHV
For experiment [8], the target named is EphB2-Fc. Described as above.
For experiment [9], the target named is EphB2-Fc. Nature of the experiment: SPR titration on immobilised EphB2-Fc, Langmuir 1:1 fit.

Chain of ephrinB2-Fc (Fc fusion) (P52800 29-232): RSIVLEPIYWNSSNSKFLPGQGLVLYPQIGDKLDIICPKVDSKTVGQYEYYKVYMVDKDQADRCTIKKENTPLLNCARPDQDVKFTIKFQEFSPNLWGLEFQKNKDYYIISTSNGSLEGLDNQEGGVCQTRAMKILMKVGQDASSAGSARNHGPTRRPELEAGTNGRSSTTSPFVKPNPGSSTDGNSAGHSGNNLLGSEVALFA
Chain of azurin from Pseudomonas aeruginosa (P00282 21-148 limits assumed): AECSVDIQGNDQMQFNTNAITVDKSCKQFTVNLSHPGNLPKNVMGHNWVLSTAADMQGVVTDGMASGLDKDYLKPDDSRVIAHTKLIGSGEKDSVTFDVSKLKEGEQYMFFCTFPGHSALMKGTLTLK
Chain of GST-Azu 88-113 (P08515 1-218, tags or fused parts left off): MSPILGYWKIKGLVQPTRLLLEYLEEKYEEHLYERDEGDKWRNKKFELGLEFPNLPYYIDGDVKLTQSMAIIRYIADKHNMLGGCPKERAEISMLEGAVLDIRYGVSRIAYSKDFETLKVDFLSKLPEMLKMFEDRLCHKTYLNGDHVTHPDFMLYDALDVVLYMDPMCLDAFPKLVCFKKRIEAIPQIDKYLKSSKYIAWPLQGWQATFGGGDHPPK
Chain of glutathione S-transferase (GST) (P08515 whole entry): as the sequence (P08515 1-218, tags or fused parts left off) above
Chain of GST-Azu 36-89 (P08515 1-218, tags or fused parts left off): as above

In experiment [1], “GST-Azu 88-113 (from UniProt P08515 1-218)” yielded a reduction of total protein binding to the surface of less than 60%. For the same substance, in [2], the decrease in phosphotyrosine level on cotreatment with ephrinB2 (lane 11 against lane 8) was found to be 21%, the decrease in phosphotyrosine level on cotreatment with ephrinB2 (lane 12 against lane 9) was 42% and the decrease in phosphotyrosine level on cotreatment with ephrinB2 (lane 13 against lane 10) was 45%. For the same substance, the level at which the inhibition levels off in experiment [3] lay in the range of 40 to 50%.

With “GST-Azu 36-89 (from UniProt P08515 1-218)”, in experiment [4], the Req in RU is 57 RU.

Regarding “azurin from Pseudomonas aeruginosa (from UniProt P00282 21-148)”, in experiment [4], the Req in RU turned out to be 427 RU. Also, the Kd in experiment [5] came out at 6 nM. Further, the lower level of tyrosine phosphorylation with azurin plus ephrinB2 than with ephrinB2 alone in experiment [2] lay in the range of 30 to 40%. In experiment [6], this substance registered a reduction of total protein binding to the surface of less than 60%. This substance also displayed a level at which the inhibition levels off in experiment [3] of 40 to 50%. Further, the values for the Req (saturating resonance) in experiment [7] and in [8] were 1200 RU and 1250 RU, respectively.

Regarding ephrinB2-Fc (Fc fusion), the Req in RU in [4] turned out to be 159 RU. For the same substance, the Kd in experiment [5] and in experiment [9] was 30 nM each time.

Regarding “glutathione S-transferase (GST) (from UniProt P08515 1-218) (enzyme)”, the Req in RU in experiment [4] is 14 RU. In experiment [9], this substance showed a Kd greater than 160 nM.
